Assay results from paper PMC8156982, “DNA Aptamers against Vaccinia-Related Kinase (VRK) 1 Block Proliferation in MCF7 Breast Cancer Cells”.

Key:
[1] = biological target: T1, VRK1 (vaccinia-related kinase 1), recombinant (UniProt Q99986 1-396); experiment: ELONA; 1 mM Mg2+; 10 mM sodium phosphate, 0.15 M NaCl, pH 7.5, 1 mM MgCl2, 0.2% BSA; 37 C, 1 h; aptamers denatured at 95 C 10 min then ice 10 min; VRK1 coated on plate (20 or 200 ng/well); conditions: protein: recombinant, tags: 6xHis, label: digoxigenin (5' when made with primer F5)
T1 sequence: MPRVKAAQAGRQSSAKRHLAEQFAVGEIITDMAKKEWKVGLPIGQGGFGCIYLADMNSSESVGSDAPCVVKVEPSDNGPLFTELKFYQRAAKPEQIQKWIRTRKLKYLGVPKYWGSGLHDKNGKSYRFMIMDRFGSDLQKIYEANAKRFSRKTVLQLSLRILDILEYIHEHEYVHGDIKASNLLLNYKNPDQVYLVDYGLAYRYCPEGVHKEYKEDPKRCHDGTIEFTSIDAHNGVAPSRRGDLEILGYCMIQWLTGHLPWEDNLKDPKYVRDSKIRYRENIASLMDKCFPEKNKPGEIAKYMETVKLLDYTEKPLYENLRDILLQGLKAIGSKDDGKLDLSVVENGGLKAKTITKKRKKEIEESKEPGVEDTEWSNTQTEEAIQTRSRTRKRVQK

[2] = biological target: T1, VRK1 (vaccinia-related kinase 1), …; experiment: ELONA; 80 nM; at least twice control; 10 mM sodium phosphate, 0.15 M NaCl, pH 7.5, 1 mM MgCl2, 0.2% BSA; 37 C, 1 h; aptamers denatured at 95 C 10 min then ice 10 min; VRK1 coated on plate (20 or 200 ng/well); conditions: protein: recombinant; tags: 6xHis; label: 5' digoxigenin on both chains; PCR duplex denatured at 95 C and cooled on ice
[3] = biological target: T1, VRK1 (vaccinia-related kinase 1), …; experiment: ELONA; 40 nM PCR-labeled chain; 10 mM sodium phosphate, 0.15 M NaCl, pH 7.5, 1 mM MgCl2, 0.2% BSA; 37 C, 1 h; aptamers denatured at 95 C 10 min then ice 10 min; VRK1 coated on plate (20 or 200 ng/well); conditions: protein: recombinant; tags: 6xHis; label: digoxigenin (5' when made with primer R5); no G-quadruplex (predicted)
[4] = possible two G-quadruplexes (predicted)

B1: apVRKF8 (V#F8) (ssDNA)
DNA: ACGCTCGGATGCCACTACAGGGAGGGGGGGGGAAAGTAAGCGGGGGGTCGGCGGCCTCATGGACGTGCTGGTGA
Kd [1, 4]: 45.8 ± 5.01 nM

B2: apVRK8 (F+R chains) (mixed)
DNA 1: ACGCTCGGATGCCACTACAGGGAGGGGGGGGGAAAGTAAGCGGGGGGTCGGCGGCCTCATGGACGTGCTGGTGA
DNA 2: TCACCAGCACGTCCATGAGGCCGCCGACCCCCCGCTTACTTTCCCCCCCCCTCCCTGTAGTGGCATCCGAGCGT
binding signal [2]: > 2 fold over control

B3: apVRKR28 (V#R28) (ssDNA)
DNA: TCACCAGCACGTCCATGAGGCAAGAAACCCACCCACCGCCCCCATCCGCCGTCCCTGTAGTGGCATCCGAGCGT
binding result [3]: binds

B4: apVRKF28 (V#F28) (ssDNA)
DNA: ACGCTCGGATGCCACTACAGGGACGGCGGATGGGGGCGGTGGGTGGGTTTCTTGCCTCATGGACGTGCTGGTGA
Kd ([1]; possible one G-quadruplex (predicted)): 60.1 ± 7.05 nM

B5: apVRK28 (F+R chains) (mixed)
DNA 1: ACGCTCGGATGCCACTACAGGGACGGCGGATGGGGGCGGTGGGTGGGTTTCTTGCCTCATGGACGTGCTGGTGA
DNA 2: TCACCAGCACGTCCATGAGGCAAGAAACCCACCCACCGCCCCCATCCGCCGTCCCTGTAGTGGCATCCGAGCGT
binding signal [2]: > 2 fold over control

B6: apVRK33 (F+R chains) (mixed)
DNA 1: ACGCTCGGATGCCACTACAGGTTGCGAGGTGGGGGGTGGGTAGGGTGGGAAGTGCCCTCATGGACGTGCTGGTGA
DNA 2: TCACCAGCACGTCCATGAGGGCACTTCCCACCCTACCCACCCCCCACCTCGCAACCTGTAGTGGCATCCGAGCGT
binding signal [2]: > 2 fold over control

B7: apVRKF33 (V#F33) (ssDNA)
DNA: ACGCTCGGATGCCACTACAGGTTGCGAGGTGGGGGGTGGGTAGGGTGGGAAGTGCCCTCATGGACGTGCTGGTGA
Kd [1, 4]: 129 ± 55.6 nM
